Experimental findings from patent US20190383824A1 (OREGON HEALTH AND SCIENCE UNIVERSITY, published 2019) are described below.

T1: CoilY-EGFP-TM
T1 construct: also called CoilY-GFP
T1 chain: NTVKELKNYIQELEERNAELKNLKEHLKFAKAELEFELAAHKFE

T2: CoilE-DHFR
T2 construct: Lysate and purified protein resolved by SDS-PAGE and blotted on PVDF
T2 chain: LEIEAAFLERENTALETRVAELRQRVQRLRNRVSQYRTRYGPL

T3: CoilZ-EGFP-TM
T3 construct: CoilZ fused to the N-terminus of EGFP in pDisplay; also called CoilZ-GFP; CoilZ-EGFP-pDisplay
T3 chain: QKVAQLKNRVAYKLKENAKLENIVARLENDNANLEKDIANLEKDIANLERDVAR

T4: CoilY-mCherry-TM
T4 construct: CoilY fused to the N-terminus of a membrane-targeted mCherry construct; on cells or in HEK293FT lysates; also called CoilY-mCherry-pDisplay
T4 chain: T1 chain

T5: H2B-6-CoilE-mEmerald
T5 construct: Expressed in U-2 OS cells; labelled after fixation and permeabilisation; also called mEmerald-CoilE-H2B; not shown: histone H2B (H2B-6 construct); mEmerald, engineered green fluorescent protein
T5 chain: T2 chain

T6: mEmerald-CoilE-Actin-C18
T6 construct: Expressed in U-2 OS cells; labelled after fixation and permeabilisation; also called CoilE-tagged actin; not shown: mEmerald, engineered green fluorescent protein; actin (Actin-C18 construct)
T6 chain: T2 chain

T7: Mito-7-CoilE-mEmerald
T7 construct: Expressed in U-2 OS cells; labelled after fixation and permeabilisation; also called mEmerald-CoilE-mito; not shown: mEmerald, engineered green fluorescent protein
T7 chain: T2 chain

B1: CoilZ probe peptide (peptide)
peptide: MGSSQKVAQLKNRVAYKLKENAKLENIVARLENDNANLEKDIANLEKDIANLERDVARGGGAAACLGKLAAALEHHHHHH
modifications: reporter named in each row (AF647, fluorescein or biotin) conjugated to the reactive cysteine by maleimide chemistry; label state not stated for the biophysical characterisation
notes: Recombinant from E. coli, with linker, reactive cysteine and His6 tag; All differently labelled CoilZ probes are kept as one molecule; also called Coil6; Zip6
B2: CoilY probe peptide (peptide)
peptide: MGSSNTVKELKNYIQELEERNAELKNLKEHLKFAKAELEFELAAHKFEGGGAAACLGKLAAALEHHHHHH
modifications: also: label (AF647, rhodamine or biotin) on Cys55 by maleimide, varies between preparations
notes: Recombinant from E. coli, with linker, reactive cysteine and His6 tag; All differently labelled CoilY probes are kept as one molecule; also called Coil5; Zip5
B3: CoilR probe peptide (peptide)
peptide: MGGSLEIRAAFLRQRNTALRTEVAELEQEVQRLENEVSQYETRYGPLGGGAAALGCLAAALEHHHHHH
modifications: not fully specified
notes: also called CoilR-Cy5; CoilR-biotin

Test [1] has as its target T1, CoilY-EGFP-TM. Kind of test: flow cytometry, live U-2 OS cells, 500 nM probe. How it is done:
(§1) Cells were treated with 500 nM AF647-conjugated probe peptide before analysis, and we gated for EGFP-expressing cells.
(A flow cytometer gives signals particle by particle.)

The target of a further test is T2, CoilE-DHFR. Kind of test: fluorescent blot on PVDF after SDS-PAGE.
The target of the test “CoilY probe peptide” is B2. The experiment in a line: purified peptides; interferometry is named among the characterisation methods.
The target in test [2] is T3, CoilZ-EGFP-TM. Kind of test: two-target imaging of cells, confocal microscopy, streptavidin-Qdot565 detection.
In test [3] the target is T4, CoilY-mCherry-TM. Kind of test: two-target imaging of cells, confocal microscopy.
Test [4] has as its target T3, CoilZ-EGFP-TM. The experiment in a line: flow cytometry, live U-2 OS cells, 500 nM probe. As for the experimental part:
as §1

Test [5] addresses T1, CoilY-EGFP-TM. Kind of test: flow cytometry, live U-2 OS cells. As for the experimental part:
as §1

The target of test [6] is T3, CoilZ-EGFP-TM. The experiment in a line: flow cytometry, live cells, 300 nM probe.
The target of test [7] is T4, CoilY-mCherry-TM. The experiment in a line: fluorescent blot on PVDF after SDS-PAGE.
Another test concerns the target T5, H2B-6-CoilE-mEmerald. The experiment in a line: colocalisation analysis of micrographs, fixed U-2 OS cells. As for the experimental part:
(§2) U-2 OS cells were transfected with mEmerald-actin-C18, mEmerald-CoilE-actin-C18, H2B-6-mEmerald, H2B-6-CoilE-mEmerald, Mito-7-mEmerald, and Mito-7-CoilE-mEmerald and fixed with 4% PFA 24 hours after transfection. […] Cells were fixed and imaged using with line-scanning confocal microscope.
(§3) The cells labeled as in FIG. 15 at low magnification to capture multiple cells.

In the next test the target is T6, mEmerald-CoilE-Actin-C18. The description is as above. As for the experimental part: as §2, §3
A further test deals with T7, Mito-7-CoilE-mEmerald. The test is described as above. As for the experimental part:
as §2, §3

The target of the next test is T8, untagged TfR1 (UniProt P02786 1-760, limits assumed).
T8 construct: whole, on cells; Expressed in CHO TRVb cells; control without a coil tag; also called transferrin receptor 1; TfR1-TRVb
T8 sequence (P02786 whole entry): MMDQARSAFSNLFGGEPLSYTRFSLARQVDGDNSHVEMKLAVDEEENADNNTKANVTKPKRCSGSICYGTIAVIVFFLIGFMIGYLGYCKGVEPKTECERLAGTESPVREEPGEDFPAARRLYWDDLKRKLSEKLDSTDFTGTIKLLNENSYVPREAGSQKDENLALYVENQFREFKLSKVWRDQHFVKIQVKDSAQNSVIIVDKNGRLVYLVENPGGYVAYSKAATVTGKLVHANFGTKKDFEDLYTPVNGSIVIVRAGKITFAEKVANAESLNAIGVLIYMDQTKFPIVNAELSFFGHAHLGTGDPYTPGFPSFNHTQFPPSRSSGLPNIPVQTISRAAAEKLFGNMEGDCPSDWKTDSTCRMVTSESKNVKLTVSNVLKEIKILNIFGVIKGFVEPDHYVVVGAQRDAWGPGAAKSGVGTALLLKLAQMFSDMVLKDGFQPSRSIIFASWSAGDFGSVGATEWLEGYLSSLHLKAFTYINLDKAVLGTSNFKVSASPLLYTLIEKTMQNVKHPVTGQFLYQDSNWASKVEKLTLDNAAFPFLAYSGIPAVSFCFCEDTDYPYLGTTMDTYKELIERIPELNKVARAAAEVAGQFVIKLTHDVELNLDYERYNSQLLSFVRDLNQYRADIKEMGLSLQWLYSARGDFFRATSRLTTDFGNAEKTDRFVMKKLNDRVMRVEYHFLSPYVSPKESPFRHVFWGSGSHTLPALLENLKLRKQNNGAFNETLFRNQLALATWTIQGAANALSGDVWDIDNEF
The experiment in a line: CLEM of CHO TRVb cells, CoilR-biotin detected by streptavidin-QD655. From the text:
VIP E/R was used for CLEM imaging of TfR1 receptor (FIG. 7). […] This enabled individual cells' locations to be registered relative to the slide so that they may be reimaged again via SEM. After fluorescent cells were mapped, the coverslips were processed for EM imaging.

For orientation: Kd means the equilibrium constant for the complex coming apart. Higher therefore signals a looser complex. Regarding B1, in the test with CoilY-EGFP-TM [1], the “fold enhancement of AF647 fluorescence” value amounted to 4 fold. The binding result in the test with CoilE-DHFR is “no binding”; in the test with CoilZ-EGFP-TM [2] it was “no binding (tested: 500 nM)”. The molecule also gave a Kd in the test with CoilY probe peptide of 3.6 nM.

With B2, the binding result with CoilY-mCherry-TM [3] and with CoilY-EGFP-TM [5] was “no binding (tested: 500 nM)” in each case. Moreover, the “fold enhancement of AF647 fluorescence” value with CoilZ-EGFP-TM [4] is above 40 fold. Also, the “fold increase in AF647 fluorescence” value with CoilZ-EGFP-TM [6] worked out at 35 fold.

On to B3, for which the binding result with CoilY-mCherry-TM [7] was “no binding”; with untagged TfR1, “no binding (tested: 100 nM)”. For the same molecule, the figures for the “Pearson's correlation between the mEmerald signal and CoilR-Cy5” value in the test with H2B-6-CoilE-mEmerald, in the test with mEmerald-CoilE-Actin-C18 and with Mito-7-CoilE-mEmerald were 0.9, 0.97 and 0.89, respectively.
